Assay results from US20260226194A1 (GlaxoSmithKline, published 2026).
Numbering of substitutions follows the chain as printed. Numbers in names are those of the source.

How the values were obtained:
[1] = biological target: T1, recombinant human PAPPA (pregnancy associated plasma protein-A) (human, UniProt Q13219 82-1627); assay: cell-based or functional assay
[2] = biological target: T1, recombinant human PAPPA (pregnancy …); assay: cell-based or functional assay; remark: listed apart in the source
[3] = biological target: T2, recombinant cynomolgus monkey PAPPA (cynomolgus monkey, UniProt A0A2K5WE98 87-1619); assay: cell-based or functional assay
[4] = biological target: T3, recombinant mouse PAPPA (mouse, UniProt Q8R4K8 82-1624, limits assumed); assay: cell-based or functional assay
[5] = biological target: T4, endogenous human PAPPA natively secreted by human cells (A549; 9-7) (human, UniProt Q13219 82-1627); assay: cell-based or functional assay
[6] = biological target: T4, endogenous human PAPPA natively …; assay: cell-based or functional assay; remark: listed apart in the source
[7] = biological target: T1, recombinant human PAPPA (pregnancy …); assay: cell-based or functional assay; remark: listed apart in the source
[8] = biological target: T1, recombinant human PAPPA (pregnancy …); assay: cell-based or functional assay; remark: listed apart in the source
[9] = biological target: T4, endogenous human PAPPA natively …; assay: cell-based or functional assay; remark: listed apart in the source
[10] = biological target: T3, recombinant mouse PAPPA; assay: SPR (Biacore 8K+, captured mAb, 37 C); data not shown
[11] = biological target: rat PAPPA (rat, UniProt A0ABK0LMY4 80-1624); assay: as above
[12] = biological target: T1, recombinant human PAPPA (pregnancy …); assay: SPR, Biacore 8K+, mAb captured on PrismA chip, PAPPA as analyte, 37 C, mean of n=3
Protocol: (§1) Binding of TPP12744 to recombinant human, cynomolgus monkey and rabbit PAPPA was assessed using capture kinetics method on BIACORE 8K+ (Cytiva) SPR instrument. The antibodies, including controls, were captured on PrismA biosensor surface (Cytiva) at injection rate of 10 μl/min. Analytes were injected at injection rate of 30 μl/min over the captured antibodies as a concentration series including eight 2× serial dilutions with the highest concentration of 32 nM. Association phase was 160 seconds, followed by a dissociation phase of 600 seconds. Buffer only (OnM analyte) injection was used to double reference the binding curves. Regeneration of the chip surface between cycles was carried out using 10 mM Glycine pH 1.5. The assay was run at 37° C. in HBS-EP+ buffer with 0.1% BSA to minimize the nonspecific binding of the analytes to the chip surface. TPP12744 was analyzed as three independently prepared replicates.
(§2) The final screening process was conducted using the following criteria. Firstly, antibodies were checked for affinity to human PAPPA (method #4). Only antibodies with low nanomolar affinity for human PAPPA were retained. For one antibody (TPP12744) binding to PAPPA was assessed at 37° C. using the methodology described in Example 1, method #6.

[13] = biological target: human PAPPA (Common variant) (human); assay: as above
Protocol: as §1, §2

[14] = biological target: T2, recombinant cynomolgus monkey PAPPA; assay: as above
Protocol: as §1, §2

T1 sequence (Q13219 82-1627 limits assumed): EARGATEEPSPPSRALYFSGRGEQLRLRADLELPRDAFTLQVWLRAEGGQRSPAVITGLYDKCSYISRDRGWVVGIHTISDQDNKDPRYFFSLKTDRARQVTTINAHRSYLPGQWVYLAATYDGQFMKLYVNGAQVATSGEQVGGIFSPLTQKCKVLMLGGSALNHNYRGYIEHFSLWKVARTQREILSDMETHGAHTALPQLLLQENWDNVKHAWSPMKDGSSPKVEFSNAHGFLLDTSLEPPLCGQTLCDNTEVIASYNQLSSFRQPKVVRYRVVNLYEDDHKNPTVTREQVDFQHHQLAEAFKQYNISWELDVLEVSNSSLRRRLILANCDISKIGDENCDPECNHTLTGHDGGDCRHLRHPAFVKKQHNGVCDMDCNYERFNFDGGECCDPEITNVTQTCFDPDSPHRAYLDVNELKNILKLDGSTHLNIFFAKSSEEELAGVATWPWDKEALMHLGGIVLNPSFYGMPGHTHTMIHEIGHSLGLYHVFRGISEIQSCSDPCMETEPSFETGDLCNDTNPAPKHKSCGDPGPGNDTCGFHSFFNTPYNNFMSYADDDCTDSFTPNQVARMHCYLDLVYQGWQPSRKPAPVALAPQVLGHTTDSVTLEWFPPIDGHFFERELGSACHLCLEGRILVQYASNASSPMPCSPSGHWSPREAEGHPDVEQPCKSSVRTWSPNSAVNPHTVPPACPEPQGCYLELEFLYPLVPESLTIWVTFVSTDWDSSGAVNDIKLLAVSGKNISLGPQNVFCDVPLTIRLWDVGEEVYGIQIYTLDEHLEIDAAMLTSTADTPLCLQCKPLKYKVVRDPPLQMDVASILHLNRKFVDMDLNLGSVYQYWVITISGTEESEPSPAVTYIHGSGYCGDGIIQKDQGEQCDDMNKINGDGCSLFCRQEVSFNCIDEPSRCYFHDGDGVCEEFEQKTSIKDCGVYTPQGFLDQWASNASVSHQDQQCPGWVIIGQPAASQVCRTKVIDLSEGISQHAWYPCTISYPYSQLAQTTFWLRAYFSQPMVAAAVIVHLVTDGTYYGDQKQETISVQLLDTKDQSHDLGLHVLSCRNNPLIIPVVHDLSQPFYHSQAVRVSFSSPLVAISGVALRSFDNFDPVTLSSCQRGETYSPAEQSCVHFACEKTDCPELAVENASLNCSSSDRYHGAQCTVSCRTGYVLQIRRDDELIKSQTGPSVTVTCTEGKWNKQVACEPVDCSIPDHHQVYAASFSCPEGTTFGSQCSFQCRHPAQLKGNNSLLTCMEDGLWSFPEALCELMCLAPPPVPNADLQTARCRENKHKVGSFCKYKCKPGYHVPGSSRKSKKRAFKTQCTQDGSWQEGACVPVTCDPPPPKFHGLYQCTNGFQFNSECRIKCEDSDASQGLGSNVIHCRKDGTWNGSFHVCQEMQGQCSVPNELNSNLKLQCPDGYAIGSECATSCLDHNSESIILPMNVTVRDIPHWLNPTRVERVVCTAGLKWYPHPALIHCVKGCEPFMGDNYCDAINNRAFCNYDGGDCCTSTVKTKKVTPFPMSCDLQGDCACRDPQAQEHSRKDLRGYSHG
T4 sequence (Q13219 82-1627 limits assumed): as above
T3 sequence (Q8R4K8 82-1624 limits assumed): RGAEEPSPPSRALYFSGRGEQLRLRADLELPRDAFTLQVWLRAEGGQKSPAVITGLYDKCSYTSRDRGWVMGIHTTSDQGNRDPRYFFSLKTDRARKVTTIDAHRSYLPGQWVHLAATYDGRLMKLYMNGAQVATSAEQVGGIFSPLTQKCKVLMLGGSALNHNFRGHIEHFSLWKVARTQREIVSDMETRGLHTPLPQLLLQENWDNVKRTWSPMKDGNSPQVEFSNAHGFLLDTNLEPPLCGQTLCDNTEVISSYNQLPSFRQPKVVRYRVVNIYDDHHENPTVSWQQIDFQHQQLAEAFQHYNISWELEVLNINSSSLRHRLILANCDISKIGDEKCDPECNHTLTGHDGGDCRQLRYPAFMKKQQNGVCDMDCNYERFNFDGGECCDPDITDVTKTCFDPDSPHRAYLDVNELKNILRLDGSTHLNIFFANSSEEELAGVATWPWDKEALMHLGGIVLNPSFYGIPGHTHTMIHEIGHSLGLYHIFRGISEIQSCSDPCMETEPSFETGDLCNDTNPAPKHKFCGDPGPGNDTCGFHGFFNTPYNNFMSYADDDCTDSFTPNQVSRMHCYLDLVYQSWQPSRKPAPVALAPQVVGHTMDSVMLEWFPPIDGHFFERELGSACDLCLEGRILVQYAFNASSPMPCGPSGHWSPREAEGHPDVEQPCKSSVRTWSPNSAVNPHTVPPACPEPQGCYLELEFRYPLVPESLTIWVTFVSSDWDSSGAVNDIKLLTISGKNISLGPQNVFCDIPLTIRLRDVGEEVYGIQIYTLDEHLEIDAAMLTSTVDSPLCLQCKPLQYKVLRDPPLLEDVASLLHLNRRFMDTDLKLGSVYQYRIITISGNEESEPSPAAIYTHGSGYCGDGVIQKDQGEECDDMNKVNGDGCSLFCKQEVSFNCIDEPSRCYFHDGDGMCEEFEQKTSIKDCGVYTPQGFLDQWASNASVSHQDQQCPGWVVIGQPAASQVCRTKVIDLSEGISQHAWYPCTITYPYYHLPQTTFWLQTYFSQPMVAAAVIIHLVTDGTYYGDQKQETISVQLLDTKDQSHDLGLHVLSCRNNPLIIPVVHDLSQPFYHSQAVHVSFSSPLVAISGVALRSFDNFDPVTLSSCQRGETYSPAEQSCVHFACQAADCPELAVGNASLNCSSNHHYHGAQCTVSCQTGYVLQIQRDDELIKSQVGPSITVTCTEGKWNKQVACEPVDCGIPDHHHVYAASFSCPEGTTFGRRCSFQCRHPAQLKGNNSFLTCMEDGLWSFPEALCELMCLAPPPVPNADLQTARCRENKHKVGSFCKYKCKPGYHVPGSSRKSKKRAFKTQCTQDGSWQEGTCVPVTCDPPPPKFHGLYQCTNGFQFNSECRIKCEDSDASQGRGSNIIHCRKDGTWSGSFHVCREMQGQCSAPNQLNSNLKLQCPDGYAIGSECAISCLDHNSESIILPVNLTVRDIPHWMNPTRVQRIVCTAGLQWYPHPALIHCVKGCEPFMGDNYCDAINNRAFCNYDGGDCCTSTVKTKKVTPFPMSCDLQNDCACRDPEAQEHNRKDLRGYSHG
T2 sequence (A0A2K5WE98 entry or part of it): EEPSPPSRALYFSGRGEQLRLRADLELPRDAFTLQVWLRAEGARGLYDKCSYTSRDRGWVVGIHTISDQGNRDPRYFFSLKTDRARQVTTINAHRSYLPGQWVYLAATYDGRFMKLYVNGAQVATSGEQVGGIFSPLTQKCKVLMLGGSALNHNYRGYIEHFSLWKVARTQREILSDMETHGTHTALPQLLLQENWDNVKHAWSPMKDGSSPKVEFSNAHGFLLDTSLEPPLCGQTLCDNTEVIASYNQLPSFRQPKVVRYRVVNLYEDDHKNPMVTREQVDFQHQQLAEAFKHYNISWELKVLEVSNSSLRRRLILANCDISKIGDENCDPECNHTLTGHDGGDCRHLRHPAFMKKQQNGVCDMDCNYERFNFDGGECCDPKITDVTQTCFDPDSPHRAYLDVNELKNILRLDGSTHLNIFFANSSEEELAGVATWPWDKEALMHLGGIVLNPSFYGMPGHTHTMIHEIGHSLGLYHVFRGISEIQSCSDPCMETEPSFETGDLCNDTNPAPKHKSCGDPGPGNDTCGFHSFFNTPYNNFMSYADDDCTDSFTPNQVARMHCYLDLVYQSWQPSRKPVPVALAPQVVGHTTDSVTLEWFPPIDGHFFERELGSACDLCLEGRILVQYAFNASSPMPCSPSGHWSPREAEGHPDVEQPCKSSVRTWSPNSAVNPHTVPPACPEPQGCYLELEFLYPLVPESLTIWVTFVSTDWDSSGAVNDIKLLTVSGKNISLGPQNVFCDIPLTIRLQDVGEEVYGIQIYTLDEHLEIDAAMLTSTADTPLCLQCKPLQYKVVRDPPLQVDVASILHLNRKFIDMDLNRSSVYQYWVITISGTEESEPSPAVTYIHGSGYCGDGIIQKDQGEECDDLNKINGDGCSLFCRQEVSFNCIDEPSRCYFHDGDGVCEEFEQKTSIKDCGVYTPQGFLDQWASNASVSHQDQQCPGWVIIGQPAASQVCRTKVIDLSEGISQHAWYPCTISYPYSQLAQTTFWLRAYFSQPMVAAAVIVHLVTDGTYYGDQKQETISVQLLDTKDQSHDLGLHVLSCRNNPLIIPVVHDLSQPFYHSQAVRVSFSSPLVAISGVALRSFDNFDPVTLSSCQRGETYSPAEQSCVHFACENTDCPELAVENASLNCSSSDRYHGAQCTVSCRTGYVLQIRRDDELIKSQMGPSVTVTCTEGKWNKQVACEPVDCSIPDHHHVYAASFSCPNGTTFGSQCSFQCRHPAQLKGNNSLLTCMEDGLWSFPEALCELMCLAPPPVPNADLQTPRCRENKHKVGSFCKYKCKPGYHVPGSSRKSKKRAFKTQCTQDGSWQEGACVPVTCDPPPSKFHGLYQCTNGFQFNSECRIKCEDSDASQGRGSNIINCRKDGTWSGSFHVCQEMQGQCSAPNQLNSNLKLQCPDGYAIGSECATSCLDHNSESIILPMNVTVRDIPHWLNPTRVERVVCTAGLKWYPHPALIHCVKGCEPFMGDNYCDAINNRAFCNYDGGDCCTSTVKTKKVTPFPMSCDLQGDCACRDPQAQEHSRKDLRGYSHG

B1: TPP-12681 (antibody, human IgG1, kappa, V domains shown)
VH: EVQLVQSGAEVKKPGESLKISCKGSGYSFTSYWTGWVRQAPGKGLEWMGIIYPGGSVARYSPSFQGQVTISADKSISTAYLQWSSLKASDTAVYYCARGPLRSDYPDVWGQGTMVTVSS
VL: EIVMTQSPATLSVSPGERATLSCRASQSVGSYLAWYQQKPGQAPRLLIYRGSTRATGIPARFSGSGSGTEFTLTISSLQSEDFAVYYCQQPYVWPITFGGGTKVEIKR
PAPP-A cleavage of IGFBP-4 Mean pIC50 [1]: 10.1 pIC50 | rec. Human PAPP-A IGFBP4 pIC50 (G-401 pAKT assay) [2]: 9.57 pIC50 | rec. Human PAPP-A IGFBP5 pIC50 (G-401 pAKT assay) [2]: 9.68 pIC50 | rec. Cyno PAPP-A IGFBP4 pIC50 (G-401 pAKT assay) [3]: 9.46 pIC50 | rec. Mouse PAPP-A IGFBP4 pIC50 (G-401 pAKT assay) [4]: 9.51 pIC50 | A549 cells endogenous human PAPP-A pIC50 (A549 pAKT assay) [5]: 9.7 pIC50 | EC50 (read off the curve) [6]: ~0.1 nM

B2: TPP-12821 (antibody, human IgG1, kappa, V domains shown)
VH: B1 VH with Y32D, T34I, V57D, A58T, Q65R, P106V
VL: B1 VL with Y32N, G51A
PAPP-A cleavage of IGFBP-4 Mean pIC50 [1]: 10.5 pIC50 | PAPP-A cleavage of IGFBP-5 Mean pIC50 [7]: 9.1 pIC50 | rec. Human PAPP-A IGFBP4 pIC50 (G-401 pAKT assay) [2]: 9.45 pIC50 | rec. Human PAPP-A IGFBP5 pIC50 (G-401 pAKT assay) [2]: 9.04 pIC50 | rec. Cyno PAPP-A IGFBP4 pIC50 (G-401 pAKT assay) [3]: 9.85 pIC50 | rec. Mouse PAPP-A IGFBP4 pIC50 (G-401 pAKT assay) [4]: 9.28 pIC50 | A549 cells endogenous human PAPP-A pIC50 (A549 pAKT assay) [5]: 9.5 pIC50

B3: TPP-12683 (antibody, human IgG1, kappa, V domains shown)
VH: QLQLQESGPGLVKPSETLSLTCTVSGGSISSSSYNWGWIRQPPGKGLEWIGSISSSGSTYFNPSLKSRVTISVDTSKNQFSLKLSSVTAADTAVYYCARSGYRPSFYAMDAWGQGTTVTVSS
VL: DIQLTQSPSSVSASVGDRVTITCRASQDISYWLAWYQQKPGKAPKLLIYAASSLQSGVPSRFSGSGSGTDFTLTISSLQPEDFATYYCQQAYLLHTFGGGTKVEIKR
PAPP-A cleavage of IGFBP-4 Mean pIC50 [1]: 8.8 pIC50 | PAPP-A cleavage of IGFBP-5 Mean pIC50 [7]: 8.69 pIC50 | rec. Human PAPP-A IGFBP4 pIC50 (G-401 pAKT assay) [2]: 8.84 pIC50 | rec. Human PAPP-A IGFBP5 pIC50 (G-401 pAKT assay) [2]: 8.81 pIC50 | rec. Cyno PAPP-A IGFBP4 pIC50 (G-401 pAKT assay) [3]: 8.48 pIC50 | rec. Mouse PAPP-A IGFBP4 pIC50 (G-401 pAKT assay) [4]: 8.88 pIC50 | A549 cells endogenous human PAPP-A pIC50 (A549 pAKT assay) [5]: 8.44 pIC50

B4: TPP-12743 (antibody, human IgG1, kappa, V domains shown)
VH: QVQLVQSGAEVKKPGASVKVSCKASGYTFTSYAMHWVRQAPGQRLEWMGWMNAGTGATKSSQKFQGRVTITRDTSASTAYMELSSLRSEDTAVYYCARGPSLETPTTFGMDVWGQGTTVTVSS
VL: DIQMTQSPSSVSASVGDRVTITCRASQGISRWLAWYQQKPGKAPKLLIYAASSLQSGVPSRFSGSGSGTDFTLTISSLQPEDFATYYCQQENAYPFTFGGGTKVEIKR
PAPP-A cleavage of IGFBP-4 Mean pIC50 [1]: 10 pIC50 | PAPP-A cleavage of IGFBP-5 Mean pIC50 [7]: 10.4 pIC50 | rec. Human PAPP-A IGFBP4 pIC50 (G-401 pAKT assay) [2]: 9.36 pIC50 | rec. Human PAPP-A IGFBP5 pIC50 (G-401 pAKT assay) [2]: 9.66 pIC50 | rec. Cyno PAPP-A IGFBP4 pIC50 (G-401 pAKT assay) [3]: 10 pIC50 | A549 cells endogenous human PAPP-A pIC50 (A549 pAKT assay) [5]: 9.76 pIC50

B5: TPP-12744 (antibody, human IgG1, kappa, V domains shown)
VH: B4 VH with L102M
VL: B4 VL
notes: human IgG1/kappa, Fc-disabled (L235A, G237A)
IC50, PAPPA-mediated cleavage of human IGFBP2, cell-free, Western blot [8]: 1.39 nM | EC50, increase of intact IGFBP4 in A549 cell supernatant (ELISA) [9]: 0.8 nM | EC50, increase of intact IGFBP4 in ADPKD patient derived cystic 9-7 cells (ELISA) [9]: 0.4 nM | IC50, decrease of IGFBP4-Ct fragments in 9-7 cells (ELISA) [9]: 0.02 nM | IC50, decrease of IGFBP4-Ct fragments in A549 cell supernatant (ELISA) [9]: 0.8 nM | IC50, decrease of free-IGF-1 in A549 cell supernatant (ELISA) [9]: 0.03 nM | pEC50, increase of intact IGFBP4 in 9-7 cells (ELISA) [9]: 9.41 pEC50 | pEC50, increase of intact IGFBP4 in A549 cell supernatant (ELISA) [9]: 9.09 pEC50 | pIC50, decrease of IGFBP4-Ct fragments in 9-7 cells (ELISA) [9]: 10.6 pIC50 | pIC50, decrease of IGFBP4-Ct fragments in A549 cell supernatant (ELISA) [9]: 9.07 pIC50 | pIC50, decrease of free-IGF-1 in A549 cell supernatant (ELISA) [9]: 10.5 pIC50 | PAPP-A cleavage of IGFBP-4 Mean pIC50 [1]: 10 pIC50 | PAPP-A cleavage of IGFBP-5 Mean pIC50 [7]: 10.7 pIC50 | rec. Human PAPP-A IGFBP4 pIC50 (G-401 pAKT assay) [2]: 9.46 pIC50 | rec. Human PAPP-A IGFBP5 pIC50 (G-401 pAKT assay) [2]: 9.81 pIC50 | rec. Cyno PAPP-A IGFBP4 pIC50 (G-401 pAKT assay) [3]: 9.56 pIC50 | A549 cells endogenous human PAPP-A pIC50 (A549 pAKT assay) [5]: 9.49 pIC50 | EC50 (read off the curve) [6]: ~1 nM | binding result [10]: no binding | binding result [11]: no binding | Kd [12]: 0.127 nM | koff [12]: 0.000319 s⁻¹ | kon [12]: 2.51e+06 M⁻¹ s⁻¹ | Kd [13]: 0.21 nM | koff [13]: 0.000393 s⁻¹ | kon [13]: 1.87e+06 M⁻¹ s⁻¹ | Kd [14]: 0.161 nM | koff [14]: 0.000433 s⁻¹ | kon [14]: 2.68e+06 M⁻¹ s⁻¹

B6: TPP-12801 (antibody, human IgG1, kappa, V domains shown)
VH: QLQLQESGPGLVKPSETLSLTCTVSGGSISSSDYYWGWIRQPPGKGLEWIGSIFYSGSTYYNPSLKSRVTISVDTSKNQFSLKLSSVTAADTAVYYCARATTSSSADYWGQGTLVTVSS
VL: B4 VL with I29V, E91G, A93V, Y94P, F96L
PAPP-A cleavage of IGFBP-4 Mean pIC50 [1]: 8.96 pIC50 | PAPP-A cleavage of IGFBP-5 Mean pIC50 [7]: 9.1 pIC50 | rec. Human PAPP-A IGFBP4 pIC50 (G-401 pAKT assay) [2]: 9.22 pIC50 | rec. Human PAPP-A IGFBP5 pIC50 (G-401 pAKT assay) [2]: 9.05 pIC50 | rec. Cyno PAPP-A IGFBP4 pIC50 (G-401 pAKT assay) [3]: 9.76 pIC50 | A549 cells endogenous human PAPP-A pIC50 (A549 pAKT assay) [5]: 9.33 pIC50

B7: TPP-12792 (antibody, human IgG1, kappa, V domains shown)
VH: B6 VH
VL: B4 VL with L54V, E91G, A93V, Y94P, F96L
PAPP-A cleavage of IGFBP-4 Mean pIC50 [1]: 9.53 pIC50 | PAPP-A cleavage of IGFBP-5 Mean pIC50 [7]: 9.78 pIC50 | rec. Human PAPP-A IGFBP4 pIC50 (G-401 pAKT assay) [2]: 9.18 pIC50 | rec. Human PAPP-A IGFBP5 pIC50 (G-401 pAKT assay) [2]: 9.35 pIC50 | rec. Cyno PAPP-A IGFBP4 pIC50 (G-401 pAKT assay) [3]: 9.23 pIC50 | A549 cells endogenous human PAPP-A pIC50 (A549 pAKT assay) [5]: 8.92 pIC50

B8: TPP-12708 (antibody, human IgG1, kappa, V domains shown)
VH: B4 VH with M51I, S60Y, S61A, Q62R, L102M, F108Y, D111E
VL: B4 VL with A50S, A51T, S56L, A93D
PAPP-A cleavage of IGFBP-4 Mean pIC50 [1]: 10.2 pIC50 | PAPP-A cleavage of IGFBP-5 Mean pIC50 [7]: 11.1 pIC50 | rec. Human PAPP-A IGFBP4 pIC50 (G-401 pAKT assay) [2]: 9.59 pIC50 | rec. Human PAPP-A IGFBP5 pIC50 (G-401 pAKT assay) [2]: 9.92 pIC50 | rec. Cyno PAPP-A IGFBP4 pIC50 (G-401 pAKT assay) [3]: 9.7 pIC50 | A549 cells endogenous human PAPP-A pIC50 (A549 pAKT assay) [5]: 9.86 pIC50
